Drawing on patent US20250276073A1 (Bicycle, published 2025), this text covers Kd for 11 molecules.

This experiment deals with T1, Recombinant human His-tagged TfR1 (a.a. 89-760) (ACRO Biosystems, CD1-H5243) (human, UniProt P02786 89-760).
T1 construct: range 89-760; Bought protein; Captured and amine-coupled on an NTA chip; also called human TfR1; transferrin receptor 1; not shown: His tag (printed 'Hiss-tagged')
Nature of the experiment: SPR (Biacore), TfR1 captured/coupled on NTA chip, peptide as analyte. For orientation: Surface plasmon resonance follows binding to a sensor surface in real time, without labels.

Starred links: 1 amine or outer side, 2 acyl side, 3 side chain; linkers in the order of their positions; H or OH if unused. Positions of bridges follow the written chain, without caps; N, C: chain ends. Non-standard residues stand in square brackets, D forms with d. TATB = O=C(C[*:1])N1CN(C(=O)C[*:2])CN(C(=O)C[*:3])C1; Hyp = O=C(O)[C@@H]1C[C@@H](O)CN1; Tle = CC(C)(C)[C@H](N)C(=O)O

T1 sequence (P02786 89-760 limits assumed): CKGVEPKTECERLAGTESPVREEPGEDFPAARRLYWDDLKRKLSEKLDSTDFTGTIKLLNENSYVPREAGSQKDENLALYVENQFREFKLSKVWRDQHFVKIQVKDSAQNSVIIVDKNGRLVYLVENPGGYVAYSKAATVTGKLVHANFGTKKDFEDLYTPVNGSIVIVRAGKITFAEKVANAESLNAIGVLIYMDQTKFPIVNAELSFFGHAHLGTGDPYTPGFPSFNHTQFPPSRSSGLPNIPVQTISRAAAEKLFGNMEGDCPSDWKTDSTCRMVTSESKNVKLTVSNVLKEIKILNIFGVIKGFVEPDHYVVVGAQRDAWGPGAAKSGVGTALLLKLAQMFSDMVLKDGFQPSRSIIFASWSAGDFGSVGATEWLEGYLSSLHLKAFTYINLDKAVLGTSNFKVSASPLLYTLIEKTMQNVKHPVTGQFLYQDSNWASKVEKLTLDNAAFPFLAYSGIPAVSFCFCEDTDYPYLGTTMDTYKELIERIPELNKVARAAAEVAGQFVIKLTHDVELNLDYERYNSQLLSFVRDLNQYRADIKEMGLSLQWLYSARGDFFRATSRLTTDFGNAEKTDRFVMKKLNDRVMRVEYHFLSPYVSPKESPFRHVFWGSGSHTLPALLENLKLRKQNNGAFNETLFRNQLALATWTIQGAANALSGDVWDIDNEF

B1: BCY23202 (peptide)
peptide: CPXDAYLGCXSXCEPW
modifications: CP[HyP]DAYLGC[tBuGly]S[pCoPhe]CEPW: HyP at 3, tBuGly at 10, pCoPhe at 12; N-terminal acetyl; C-terminal CONH2; Cys 1, 9, 13 bonded to TATB scaffold
notes: Bicyclic peptide
One may read the Kd as the free concentration of one partner at which half of the binding sites on the other are occupied at equilibrium, for simple one-to-one binding. For the molecule B1, the Kd was 23 nM.

B2: BCY23205 (peptide)
peptide: CPXDAYLGCXSYCEXW
modifications: CP[HyP]DAYLGC[tBuGly]SYCE[Oxa]W: HyP at 3, tBuGly at 10, Oxa at 15; N-terminal acetyl; C-terminal CONH2; Cys 1, 9, 13 bonded to TATB scaffold
notes: Bicyclic peptide
For B2, the Kd amounted to 11 nM.

B3: BCY23203 (peptide)
peptide: CPXDAYLGCXSXCEPW
modifications: CP[HyP]DAYLGC[tBuGly]S[hTyr]CEPW: HyP at 3, tBuGly at 10, hTyr at 12; N-terminal acetyl; C-terminal CONH2; Cys 1, 9, 13 bonded to TATB scaffold
notes: Bicyclic peptide
For the molecule B3, the Kd turned out to be 283 nM.

B4: BCY23204 (peptide)
peptide: CPXDAYLGCXSYCEXW
modifications: CP[HyP]DAYLGC[tBuGly]SYCE[HyP]W: HyP at 3 and 15, tBuGly at 10; N-terminal acetyl; C-terminal CONH2; Cys 1, 9, 13 bonded to TATB scaffold
notes: Bicyclic peptide
Turning to B4, the Kd came to 9 nM.

B5: BCY23180 (peptide)
peptide: CXXDAYLGCXSYCEPW
modifications: not fully specified; C[HyP][HyP]DAYLGC[tBuGly]SYCEPW: HyP at 2 and 3, tBuGly at 10; N-terminal acetyl; C-terminal CONH2; Cys 1, 9, 13 bonded to TATB scaffold
notes: Bicyclic peptide
Take B5: the Kd is 50 nM.

B6: BCY23184 (peptide)
peptide: CPXDAYLGCXSYCEPW
modifications: CP[Cis-HyP]DAYLGC[tBuGly]SYCEPW: Cis-HyP at 3, tBuGly at 10; N-terminal acetyl; C-terminal CONH2; Cys 1, 9, 13 bonded to TATB scaffold
notes: Bicyclic peptide
In the case of B6, the Kd stood at 13 nM.

B7: BCY23218 (peptide)
peptide: Ac-CP[Hyp]DAYSGC[Tle]SYCEPW-NH2
modifications: linker 1-9-13 via TATB
SMILES: CC(=O)N[C@H]1CSCC(=O)N2CN3CN(C2)C(=O)CSC[C@@H](C(=O)N[C@@H](CCC(=O)O)C(=O)N2CCC[C@H]2C(=O)N[C@@H](Cc2c[nH]c4ccccc24)C(N)=O)NC(=O)[C@H](Cc2ccc(O)cc2)NC(=O)[C@H](CO)NC(=O)[C@H](C(C)(C)C)NC(=O)[C@H](CSCC3=O)NC(=O)CNC(=O)[C@H](CO)NC(=O)[C@H](Cc2ccc(O)cc2)NC(=O)[C@H](C)NC(=O)[C@H](CC(=O)O)NC(=O)[C@@H]2C[C@@H](O)CN2C(=O)[C@@H]2CCCN2C1=O
notes: Bicyclic peptide
In the case of B7, the Kd was 55 nM.

B8: BCY23216 (peptide)
peptide: Ac-CP[Hyp]EAYLGC[Tle]SYCEPW-NH2
modifications: linker 1-9-13 via TATB
SMILES: CC(=O)N[C@H]1CSCC(=O)N2CN3CN(C2)C(=O)CSC[C@@H](C(=O)N[C@@H](CCC(=O)O)C(=O)N2CCC[C@H]2C(=O)N[C@@H](Cc2c[nH]c4ccccc24)C(N)=O)NC(=O)[C@H](Cc2ccc(O)cc2)NC(=O)[C@H](CO)NC(=O)[C@H](C(C)(C)C)NC(=O)[C@H](CSCC3=O)NC(=O)CNC(=O)[C@H](CC(C)C)NC(=O)[C@H](Cc2ccc(O)cc2)NC(=O)[C@H](C)NC(=O)[C@H](CCC(=O)O)NC(=O)[C@@H]2C[C@@H](O)CN2C(=O)[C@@H]2CCCN2C1=O
notes: Bicyclic peptide
For the molecule B8, the Kd stood at 158 nM.

B9: BCY23220 (peptide)
peptide: Ac-CP[Hyp]DAYDGC[Tle]SYCEPW-NH2
modifications: linker 1-9-13 via TATB
SMILES: CC(=O)N[C@H]1CSCC(=O)N2CN3CN(C2)C(=O)CSC[C@@H](C(=O)N[C@@H](CCC(=O)O)C(=O)N2CCC[C@H]2C(=O)N[C@@H](Cc2c[nH]c4ccccc24)C(N)=O)NC(=O)[C@H](Cc2ccc(O)cc2)NC(=O)[C@H](CO)NC(=O)[C@H](C(C)(C)C)NC(=O)[C@H](CSCC3=O)NC(=O)CNC(=O)[C@H](CC(=O)O)NC(=O)[C@H](Cc2ccc(O)cc2)NC(=O)[C@H](C)NC(=O)[C@H](CC(=O)O)NC(=O)[C@@H]2C[C@@H](O)CN2C(=O)[C@@H]2CCCN2C1=O
notes: Bicyclic peptide
As to B9, the Kd is 72 nM.

B10: BCY23207 (peptide)
peptide: CPXDAYLGCXSYCEPY
modifications: CP[HyP]DAYLGC[tBuGly]SYCEPY: HyP at 3, tBuGly at 10; N-terminal acetyl; C-terminal CONH2; Cys 1, 9, 13 bonded to TATB scaffold
notes: Bicyclic peptide
Take B10: the Kd worked out at 7.7 nM.

B11: BCY23219 (peptide)
peptide: Ac-CP[Hyp]DAYTGC[Tle]SYCEPW-NH2
modifications: linker 1-9-13 via TATB
SMILES: CC(=O)N[C@H]1CSCC(=O)N2CN3CN(C2)C(=O)CSC[C@@H](C(=O)N[C@@H](CCC(=O)O)C(=O)N2CCC[C@H]2C(=O)N[C@@H](Cc2c[nH]c4ccccc24)C(N)=O)NC(=O)[C@H](Cc2ccc(O)cc2)NC(=O)[C@H](CO)NC(=O)[C@H](C(C)(C)C)NC(=O)[C@H](CSCC3=O)NC(=O)CNC(=O)[C@H]([C@@H](C)O)NC(=O)[C@H](Cc2ccc(O)cc2)NC(=O)[C@H](C)NC(=O)[C@H](CC(=O)O)NC(=O)[C@@H]2C[C@@H](O)CN2C(=O)[C@@H]2CCCN2C1=O
notes: Bicyclic peptide
Take B11: the Kd was determined as 51 nM.
